Source: patent US20020103111A1, “Inhibitors of MAdCAM-1-mediated interactions and methods of use therefor” (Millennium Pharmaceuticals, Inc., priority 1996, published 2002)
Square brackets hold non-standard residues; d marks the D form. Ends that are not written are not given here. NMeL = CN[C@@H](CC(C)C)C(=O)O

molecular target: human α4β7 integrin (human) (UniProt P13612); assay: inhibition of HUT 78 cell adhesion to murine MAdCAM-1/mCk

Row | Substance | IC50 [µM]
1 | Pca-Leu-Asp-Thr-Ser-Leu (peptide) | 2.1
2 | 2-Anc-Leu-Asp-Thr-Ser-Leu (peptide) | 5.4
3 | Ac-[NMeL]LDTSL | 1320
4 | Ac-MeLeu-Asp-Thr-Ser-Leu (peptide) | 150
5 | Pba-Leu-Asp-Thr-Ser-Leu (00789-1A) (peptide) | 4
6 | Dphb-Leu-Asp-Thr-Ser-Leu (peptide) | 15

The remaining lines, values ahead:

Row | IC50 [µM] | Substance
7 | 256 | [NMeL]LDTSL
8 | 11 | Pca-Asp-Thr (peptide)
9 | 13.3 | Pba-Asp-Thr-Ser-Leu (peptide)
10 | 13.5 | Pba-Asp-Thr (peptide)
11 | 8.9 | Cpc-Asp-Thr-Ser-Leu (peptide)

molecular target: human α4β7 integrin (human) (UniProt P13612); assay: inhibition of HUT 78 cell adhesion to murine MAdCAM-1/mCk at 100 µM

Row | % Adhesion Inhibition [%] | Substance
12 | 100 | Pba-Asp-Thr-Ser-Leu (peptide)
13 | 100 | Pba-Asp-Thr (peptide)

molecular target: human α4β7 integrin (human) (UniProt P13612); assay: inhibition of HUT 78 cell adhesion to murine MAdCAM-1/mCk at 500 µM

Row | Substance | % Adhesion Inhibition [%]
14 | Ac-[NMeL]LDTSL | 28
15 | H-RVHWRGLDTSLGSVQ | 90
16 | Ac-RVHWRGLDTSLGSVQ | 88
17 | Ac-RGLDTSLG | 75
18 | H-WRGLDTSLGS | 76

Further lines, results first:

Row | % Adhesion Inhibition [%] | Substance
19 | 54 | [NMeL]LDTSL
20 | 80 | H-HWRGLDTSLGSV
21 | 17 | Ac-Lle-Asp-Thr-Ser-Leu (peptide)
22 | 71 | Ac-WRGLDTSLGS
23 | 71 | Ac-HWRGLDTSLGSV
24 | 22 | NH2-Leu-Asp-Thr-Ser-Leu (peptide)

molecular target: human α4β7 integrin (human) (UniProt P13612); assay: RPMI 8866 adhesion to chimera on Protein A; neat; after control MAb 2G7

Row | bound cells (raw fluorescence) | Substance
25 | 196000 | human MAdCAM-1-IgG chimera (huMAdCAM-1-Ig, construct HuMAdIg21) (from UniProt P01857 1-330) (Fc fusion)
